Assay results published in patent US20170073664A1.

Key:
Test in all cases: cell_activity
[1] = system: AAVS-SBI TALEN left (pZT-AAVS1 L1); details: pair with right TALEN, 300 ng donor; control 111
eGFP-TALEN-18-right = details: pair; clone 6F HEK293; control 324; 95.6% positive in flow
eGFP-TALEN-18-Left = details: pair; clone 6F HEK293; control 324; 95.6% positive in flow
AAVS original TALEN left = details: pair with right TALEN, HEK293F, 300 ng donor; control 111
[2] = system: AAVS-SBI TALEN right (pZT-AAVS1 R1); details: pair with left TALEN, 300 ng donor; control 111
[3] = system: AAVS original TALEN right; details: pair with left TALEN, HEK293F, 300 ng donor; control 111

CCCCTCCACCCCACAGT (double strand) [AAVS left half-site without first T]
activity (blasticidin-resistant colonies) [1]: 2800

CGAGGAGCTGTTCA (double strand) [eGFP TALEN right half-site (TALEN reads complement)]
activity (blasticidin colonies per 10^6 cells) (eGFP-TALEN-18-right): 1080

TCCACCGGTCGCCA (double strand) [eGFP TALEN left half-site]
activity (blasticidin colonies per 10^6 cells) (eGFP-TALEN-18-Left): 1080

TCCCCTCCACCCCACAGT (double strand) [AAVS left TALEN half-site]
activity (blasticidin-resistant colonies) (AAVS original TALEN left): 1420

TTTTCTGTCACCAATCCT (double strand) [AAVS right TALEN half-site]
activity (blasticidin-resistant colonies) [2]: 2800 | activity (blasticidin-resistant colonies) [3]: 1420
